In publication PMC10484670:

Each binder was assayed against T1, eIF4E (wheat, UniProt P29557 1-215) (assay: EMSA).
T1 sequence: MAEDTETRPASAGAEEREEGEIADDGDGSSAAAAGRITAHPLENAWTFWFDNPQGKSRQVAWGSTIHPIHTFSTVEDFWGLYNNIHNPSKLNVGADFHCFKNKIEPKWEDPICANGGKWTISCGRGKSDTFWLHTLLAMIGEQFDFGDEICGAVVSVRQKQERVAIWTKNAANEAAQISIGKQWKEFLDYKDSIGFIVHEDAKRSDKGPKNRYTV

Binder | binding result
PEMV2 A23G (structured_RNA) RNA: GGUAGAACACGUGGGAUAGGGGGUGACCUUGUCGACCGGUUAUCGGUCCCCUGCUCCUUCGAGCUGGCAAGGCGCUCACAGGUUCUAC | no binding
PEMV2 U52C (structured_RNA) RNA: GGUAGAACACGUGGGAUAGGGGAUGACCUUGUCGACCGGUUAUCGGUCCCCCGCUCCUUCGAGCUGGCAAGGCGCUCACAGGUUCUAC | no binding
PEMV2 U52C:A26G (structured_RNA) RNA: GGUAGAACACGUGGGAUAGGGGAUGGCCUUGUCGACCGGUUAUCGGUCCCCCGCUCCUUCGAGCUGGCAAGGCGCUCACAGGUUCUAC | no binding
PEMV2 U24C (structured_RNA) RNA: GGUAGAACACGUGGGAUAGGGGACGACCUUGUCGACCGGUUAUCGGUCCCCUGCUCCUUCGAGCUGGCAAGGCGCUCACAGGUUCUAC | no binding
PEMV2 G21A (structured_RNA) RNA: GGUAGAACACGUGGGAUAGGAGAUGACCUUGUCGACCGGUUAUCGGUCCCCUGCUCCUUCGAGCUGGCAAGGCGCUCACAGGUUCUAC | no binding
PEMV2 G21C (structured_RNA) RNA: GGUAGAACACGUGGGAUAGGCGAUGACCUUGUCGACCGGUUAUCGGUCCCCUGCUCCUUCGAGCUGGCAAGGCGCUCACAGGUUCUAC | no binding
PEMV2 U17C:A18U (structured_RNA) RNA: GGUAGAACACGUGGGACUGGGGAUGACCUUGUCGACCGGUUAUCGGUCCCCUGCUCCUUCGAGCUGGCAAGGCGCUCACAGGUUCUAC | binds
PEMV2 C49U (structured_RNA) RNA: GGUAGAACACGUGGGAUAGGGGAUGACCUUGUCGACCGGUUAUCGGUCUCCUGCUCCUUCGAGCUGGCAAGGCGCUCACAGGUUCUAC | binds
PEMV2 C49U:G19A (structured_RNA) RNA: GGUAGAACACGUGGGAUAAGGGAUGACCUUGUCGACCGGUUAUCGGUCUCCUGCUCCUUCGAGCUGGCAAGGCGCUCACAGGUUCUAC | no binding
PEMV2 C50U (structured_RNA) RNA: GGUAGAACACGUGGGAUAGGGGAUGACCUUGUCGACCGGUUAUCGGUCCUCUGCUCCUUCGAGCUGGCAAGGCGCUCACAGGUUCUAC | no binding
PEMV2 C50U:G20A (structured_RNA) RNA: GGUAGAACACGUGGGAUAGAGGAUGACCUUGUCGACCGGUUAUCGGUCCUCUGCUCCUUCGAGCUGGCAAGGCGCUCACAGGUUCUAC | no binding
PEMV2 U65C (structured_RNA) RNA: GGUAGAACACGUGGGAUAGGGGAUGACCUUGUCGACCGGUUAUCGGUCCCCUGCUCCUUCGAGCCGGCAAGGCGCUCACAGGUUCUAC | no binding

Target: T1, eIF4E
Assay: EMSA
Remark: another data set of the same source

Binder | binding result
PEMV2 BL3-6 (crystallization, L1 mutant) (structured_RNA) RNA: GGUAGAACACGUGGGAUAGGGGAUGACCUUGUCGACCGAAACACGGUCCCCUGCUCCUUCGAGCUGGCAAGGCGCUCACAGGUUCUACC | binds
